Test results from the supplement of paper PMC10567573.

B1: MLL5 (parent)
chain: DCMGIDRQHIPDTYLCERCQPRNL
B2: ZBTB22 (parent)
chain: AVLAASSPYFHDQVLLKGMTSISL

Variants of: B1
Experiment: protein stability index of a GFP-peptide fusion (GPS, HEK-293T) (PSI 1-6); higher = more stable
Conditions: c terminus: a fixed tail appended
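Note: lentivirally expressed fusions sorted by FACS into six bins by GFP to DsRed ratio, PSI derived from sequencing read proportions per bin multiplied by bin number.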

Protein stability index, by site and new letter:
P21: D 4.21; E 4; C 3.21; Y 2.88; I 2.5; V 2.48; Q 3.93; K 3.53; W 1.7; H 2.76; G 3.45; N 3.21; S 2.93; T 2.95; L 3.61; R 3.4; F 2.49; M 3.62; A 3.58
R18: T 3.15; S 3.12; D 3.81; K 2.63; F 2.87; V 2.19; M 2.74; Q 3.01; N 3.58; E 3.15; W 2.25; Y 2.23; L 2.84; C 2.89; H 3.18; G 3.6; A 2.57; P 3.15; I 2.9
L24: A 3.55; D 3.88; H 2.91; R 2.62; N 3.26; W 2.77; Q 3.51; K 4.2; P 2.64; M 2.69; F 2.71; S 3.84; E 3.44; I 2.36; G 3.73; Y 2.86; T 3.14; V 2.84; C 3.24
E17: S 2.64; L 2.96; C 2.32; I 1.94; V 1.71; W 2.02; D 3.21; H 2.68; A 2.89; Y 2.5; N 3.35; M 2.28; K 2.6; R 2.47; Q 3.04; T 3.07; F 2.25; P 2.96; G 2.39
N23: T 2.61; L 2.5; G 3; H 2.36; Q 2.62; R 1.53; P 3.1; M 2.83; A 2.09; K 2.73; W 2.49; C 1.85; I 2.29; V 2; S 3.07; Y 1.94; F 2.58; E 2.86; D 3.08
C16: P 3.73; R 3.67; Y 2.88; V 3.21; Q 3.79; L 3.36; I 3.44; W 2.9; S 3.52; M 3.7; T 3.41; K 3.41; N 3.7
C19: E 4.12; T 4.09; S 3.85; H 3.7; N 4.06; K 3.67; Q 3.88; Y 2.8; P 4.55; G 3.63; R 4.24; D 4.73; V 2.65; I 3.02; M 1.98; F 3.14; W 2.63; A 4.26; L 3.43
R22: S 3.31; Y 2.49; C 3.66; N 2.94; T 3.34; K 3.19; M 1.86; W 1.99; P 3.34; E 3.98; Q 3.19; V 2.67; I 2.9; L 3.31; G 3.28; H 2.72; D 3.42; A 3.57; F 2.35
Q20: P 3.24; W 2.27; E 3.21; Y 2.94; G 2.79; S 3.03; V 2.79; F 2.37; C 2.69; A 2.81; I 2.55; M 3.26; N 3.33; H 2.8; L 1.99; T 3.53; D 4.22; K 2.68

Variants of: B2
Experiment: as above
Conditions: c terminus: a fixed tail appended

Protein stability index: each site, then its substitutions
V2: E 1.41; W 1.79; Q 1.62; C 1.04; T 1.45; H 2.52; D 2.17; S 2.33; K 1.97; I 2.75; R 2.15; N 1.63
A5: E 1.55; F 2.98; W 1.88; Y 2.44; Q 3.23; N 2.66; H 2.04; S 2.6; T 3.75; K 3.55; L 2.21
S7: W 2; L 2.91; E 2.33; T 3.75; I 4.5; Y 1.47; V 2.11; D 3.38; H 2.8
L3: R 1.45; E 2.04; A 2.48; P 3.11; K 1.64; C 2.92; Q 1.93; H 2.22; M 3.26; S 1.45; I 3.32; N 2.38; T 2.38
A4: H 4.29; Y 2; G 1.92; D 1.15; L 2.9; S 1.88; E 2.48; I 2.48; F 2.24; M 2.04; P 1.05; K 2.92
Y9: V 2.54; P 1.84; F 3.55; D 2.17; I 4.18; A 1.37; E 2.05; H 1.33; N 2.96
L16: F 2.47; C 3.99; D 1.93
F10: G 2.6; K 1.73; H 2.49; P 1; D 2.04; Q 1.65; R 1.41; V 2.44; E 1.76; W 2.24; C 2.28; M 2.72; N 1.92; S 1.87; Y 2.19
A1: K 3.83; H 4.3; M 2.57; I 2.99; Q 2.39; E 4.15; C 3.85; Y 2.9; N 2.3; T 4.21
L15: P 1.3; F 3.52; H 1.4; E 1.38; A 1.66; I 3.58; G 3.34; K 2.3; D 2.77; C 1.87; N 2.76; M 1.94; Q 1.76
V14: H 2.37; K 1.04; C 3.27; R 3.36; N 2.07; Q 1.73; E 2.47; M 2.72; Y 2.25; A 2.47; P 1.63; T 2.96; S 3.06; D 1.71; F 1.8
Q13: T 3.86; D 3.61; F 3; K 1.92; I 4.9; L 1.43; G 2.15; M 2.94; P 1.64; V 2.02; A 3.38; H 2.48
H11: T 3.44; S 2.71; M 4.12; I 1.58; D 3.15; P 2.11; L 1.89
S6: K 2.05; I 1.97; D 2.61; N 3.54; T 2.4; W 3.82; Q 3.02; G 2.75; E 1.41; R 1.67; P 2.23
D12: W 2.12; K 1.39; Y 3.7; Q 3.51; R 3.23; N 1.98; A 2.68; T 2.95; P 3.38; L 2.57
P8: R 4.82; I 2.73; A 2.55; D 2.5; H 2.88; F 2.55; G 3.22; L 3.83
